Results reported in patent publication US20230265151A1, “GIP/GLP1 CO-AGONIST COMPOUNDS” (priority 2020, published 2023).
Substitutions are numbered along the chain they refer to.

T1: human GIP receptor (human, UniProt P48546 22-466)
T1 sequence (looked up): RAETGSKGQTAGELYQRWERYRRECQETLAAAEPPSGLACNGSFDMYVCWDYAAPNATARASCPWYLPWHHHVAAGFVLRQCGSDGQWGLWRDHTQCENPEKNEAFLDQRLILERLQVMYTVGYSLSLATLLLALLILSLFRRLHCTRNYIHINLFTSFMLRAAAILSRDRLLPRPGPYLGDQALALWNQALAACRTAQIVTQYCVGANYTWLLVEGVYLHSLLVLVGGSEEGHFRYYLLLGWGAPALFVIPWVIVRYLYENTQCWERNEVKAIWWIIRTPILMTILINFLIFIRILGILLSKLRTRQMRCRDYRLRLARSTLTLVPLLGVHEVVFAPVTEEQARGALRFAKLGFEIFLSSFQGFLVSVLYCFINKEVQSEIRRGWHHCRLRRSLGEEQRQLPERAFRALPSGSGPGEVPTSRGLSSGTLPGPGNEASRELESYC

B1: Y-Aib-EGT-αMeF(2F)-TSD-4Pal-SI-αMeL-LD-Orn-K((2-[2-(2-Amino-ethoxy)-ethoxy]-acetyl)2-(γ-Glu)-CO-(CH2)12-CO2H)AQ-Aib-EFI-(D-Glu)-αMeY-LIEGK((2-[2-(2-Amino-ethoxy … (peptide)
peptide: YXEGTXTSDXSIXLDXKAQXEFIXXLIEGKPSSGAPPPS
modifications: Aib2, αMeF(2F)6, 4Pal10, αMeL13, Orn16, Aib20, D-Glu24, αMeY25; acylated K17, K30 (groups as in name); C-terminal amide
B2: Y-Aib-EGT-αMeF(2F)-TSD-2Nal-SI-αMeL-LD-Orn-K((2-[2-(2-Amino-ethoxy)-ethoxy]-acetyl)2-(γ-Glu)-CO-(CH2)12-CO2H)AQ-Aib-EFI-(D-Glu)-αMeY-LIEGGK((2-[2-(2-Amino-ethox … (peptide)
peptide: B1 peptide with K30G, P31K
modifications: Aib2, αMeF(2F)6, 2Nal10, αMeL13, Orn16, Aib20, D-Glu24, αMeY25; acylated K17, K31 (groups as in name); C-terminal amide
B3: Y-Aib-EGT-αMeF(2F)-TSD-4Pal-SI-αMeL-LD-Orn-K((2-[2-(2-Amino-ethoxy)-ethoxy]-acetyl)2-(γ-Glu)-CO-(CH2)14-CH3)AQ-Aib-EFI-(D-Glu)-αMeY-LIEGK((2-[2-(2-Amino-ethoxy) … (peptide)
peptide: B1 peptide
modifications: Aib2, αMeF(2F)6, 4Pal10, αMeL13, Orn16, Aib20, D-Glu24, αMeY25; acylated K17, K30 (groups as in name); C-terminal amide
B4: Y-Aib-EGT-αMeF(2F)-TSD-4Pal-SI-αMeL-LD-Orn-K((2-[2-(2-Amino-ethoxy)-ethoxy]-acetyl)2-(γ-Glu)-CO-(CH2)12-CO2H)AQ-Aib-E-(2ClPhe)-I-(D-Glu)-αMeY-LIEGGK((2-[2-(2-Am … (peptide)
peptide: B1 peptide with F22X, K30G, P31K
modifications: Aib2, αMeF(2F)6, 4Pal10, αMeL13, Orn16, Aib20, 2ClPhe22, D-Glu24, αMeY25; acylated K17, K31 (groups as in name); C-terminal amide
B5: Y-Aib-EGT-αMeF(2F)-TSD-OMeY-SI-αMeL-LD-Orn-K((2-[2-(2-Amino-ethoxy)-ethoxy]-acetyl)2-(γ-Glu)-CO-(CH2)12-CO2H)AQ-Aib-EFI-(D-Glu)-αMeY-LIEGGK((2-[2-(2-Amino-ethox … (peptide)
peptide: B1 peptide with K30G, P31K
modifications: Aib2, αMeF(2F)6, OMeY10, αMeL13, Orn16, Aib20, D-Glu24, αMeY25; acylated K17, K31 (groups as in name); C-terminal amide
B6: Y-Aib-EGT-αMeF(2F)-TSD-aMeV-SI-αMeL-LD-Orn-K((2-[2-(2-Amino-ethoxy)-ethoxy]-acetyl)2-(γ-Glu)-CO-(CH2)12-CO2H)AQ-Aib-EFI-(D-Glu)-αMeY-LIEGGK((2-[2-(2-Amino-ethox … (peptide)
peptide: B1 peptide with K30G, P31K
modifications: Aib2, αMeF(2F)6, αMeV10, αMeL13, Orn16, Aib20, D-Glu24, αMeY25; acylated K17, K31 (groups as in name); C-terminal amide
B7: Y-Aib-EGT-αMeF(2F)-TSDV-αMeS-I-αMeL-LD-Orn-K((2-[2-(2-Amino-ethoxy)-ethoxy]-acetyl)2-(γ-Glu)-CO-(CH2)12-CO2H)AQ-Aib-EFI-(D-Glu)-αMeY-LIEGGK((2-[2-(2-Amino-ethox … (peptide)
peptide: B1 peptide with X10V, S11X, K30G, P31K
modifications: Aib2, αMeF(2F)6, αMeS11, αMeL13, Orn16, Aib20, D-Glu24, αMeY25; acylated K17, K31 (groups as in name); C-terminal amide
B8: Y-Aib-EGT-αMeF(2F)-TSD-Ac6c-SI-αMeL-LD-Orn-K((2-[2-(2-Amino-ethoxy)-ethoxy]-acetyl)2-(γ-Glu)-CO-(CH2)12-CO2H)AQ-Aib-EFI-(D-Glu)-αMeY-LIEGGK((2-[2-(2-Amino-ethox … (peptide)
peptide: B1 peptide with K30G, P31K
modifications: Aib2, αMeF(2F)6, Ac6c10, αMeL13, Orn16, Aib20, D-Glu24, αMeY25; acylated K17, K31 (groups as in name); C-terminal amide
B9: Y-Aib-EGT-αMeF(2F)-TSD-4Pal-SK((2-[2-(2-Amino-ethoxy)-ethoxy]-acetyl)2-(γ-Glu)-CO-(CH2)12-CO2H)-αMeL-LD-Orn-K((2-[2-(2-Amino-ethoxy)-ethoxy]-acetyl)2-(γ-Glu)-CO … (peptide)
peptide: B1 peptide with I12K, K30G
modifications: Aib2, αMeF(2F)6, 4Pal10, αMeL13, Orn16, Aib20, D-Glu24, αMeY25; acylated K12, K17 (groups as in name); C-terminal amide
B10: Y-Aib-EGT-αMeF-TSD-4Pal-SI-αMeL-LD-Orn-K((2-[2-(2-Amino-ethoxy)-ethoxy]-acetyl)2-(γ-Glu)-CO-(CH2)12-CO2H)AQ-Aib-EFI-(D-Glu)-αMeF-LIEGGK((2-[2-(2-Amino-ethoxy)-e … (peptide)
peptide: B1 peptide with K30G, P31K
modifications: Aib2, αMeF6, 4Pal10, αMeL13, Orn16, Aib20, D-Glu24, αMeF25; acylated K17, K31 (groups as in name); C-terminal amide

Biological target: T1, human GIP receptor
Assay: cell-based or functional assay

| Binder | cAMP EC50 (1.0% HSA) | cAMP Emax (1.0% HSA) |
| --- | --- | --- |
| B1 | 1.12 nM | – |
| B2 | 4.55 nM | – |
| B3 | 0.444 nM | – |
| B4 | 0.744 nM | 92.8% |
| B5 | 1.12 nM | – |
| B6 | 18.6 nM | – |
| B7 | 16.6 nM | 81% |
| B8 | 0.865 nM | – |
| B9 | 2.08 nM | 93% |
| B10 | 2.12 nM | – |

Biological target: human GLP-1 receptor (human, UniProt P43220 24-463)
Assay: cell-based or functional assay

| Binder | cAMP Emax (1.0% HSA) | cAMP EC50 (1.0% HSA) |
| --- | --- | --- |
| B1 | 103% | – |
| B2 | – | 39.3 nM |
| B3 | 103% | – |
| B4 | 89.7% | 36.9 nM |
| B5 | – | 21.6 nM |
| B6 | – | 37.8 nM |
| B7 | 91% | 33.7 nM |
| B8 | – | 20.3 nM |
| B9 | – | 60.4 nM |
| B10 | – | 118 nM |

Biological target: human glucagon receptor (human, UniProt P47871 26-477)
Assay: cell-based or functional assay

| Binder | cAMP EC50 (1.0% HSA) |
| --- | --- |
| B1 | > 9950 nM |
| B2 | > 9950 nM |
| B3 | > 9950 nM |
| B4 | > 9950 nM |
| B5 | > 9950 nM |
| B6 | > 9950 nM |
| B8 | > 9950 nM |
| B9 | > 9950 nM |
| B10 | > 9950 nM |
